T1: cynomolgus monkey CD3 epsilon chain (CD3ε) (cynomolgus monkey (Macaca fascicularis), UniProt Q95LI5 22-198)
T1 chain: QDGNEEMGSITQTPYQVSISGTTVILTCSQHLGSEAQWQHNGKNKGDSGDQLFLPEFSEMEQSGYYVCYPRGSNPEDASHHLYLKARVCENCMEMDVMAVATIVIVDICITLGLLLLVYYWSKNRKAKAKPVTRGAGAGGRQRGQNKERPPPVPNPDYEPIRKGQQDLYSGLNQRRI


Key:
[1] = target: T1, cynomolgus monkey CD3 epsilon chain …; test: cell-based or functional assay
[2] = target: T2, human CD3 epsilon chain (CD3ε) (human, UniProt P07766 22-207); test: FACS on isolated human T cells; FITC anti-human light chain secondary
T2 construct: also called CD3ε on human T cells; human CD3ε
T2 sequence (P07766 22-207 limits assumed): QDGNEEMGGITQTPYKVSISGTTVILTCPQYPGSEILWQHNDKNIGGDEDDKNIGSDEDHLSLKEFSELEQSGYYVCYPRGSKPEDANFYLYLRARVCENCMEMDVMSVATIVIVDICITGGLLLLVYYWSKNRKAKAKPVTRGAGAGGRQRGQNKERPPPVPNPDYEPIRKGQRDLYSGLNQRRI
Procedure: (§1) The heterodimeric bispecific antibodies described in Example 1 were produced in HEK 293 cells and were assayed by fluorescence activated cell sorting (FACS) for binding to T cells, which express CD3ε, and to a human ovarian cancer cell line, Ovcar-8, which expresses mesothelin. Briefly, the heterodimeric bispecific antibodies were incubated with about 50,000 Ovcar-8 cells or isolated human or cynomolgus monkey T cells at 4° C. for one hour. The cells were then washed and stained with a fluorescein isothiocyanate (FITC)-conjugated anti-human light chain secondary antibody and analyzed by flow cytometry. The relative binding was represented by the geometric mean of fluorescence intensity.

[3] = target: T1, cynomolgus monkey CD3 epsilon chain …; test: FACS on isolated cynomolgus monkey T cells; FITC anti-human light chain secondary
Procedure: as §1

Binder	Cyno TDCC EC50 (pM), Ovcar-8 target cells with cynomolgus monkey T cells [1] [pM]	Cyno TDCC Max killing (%), Ovcar-8 target cells with cynomolgus monkey T cells [1] [%]	FACS binding (geometric mean) [2]	FACS binding (geometric mean) [3]
H69072.4 (anti-MSLN/CD3ε heterodimeric bispecific antibody) (bispecific antibody) chain 1: DIQMTQSPSSVSASVGDRVTITCRASQGISSWLAWYQQKPGKAPKLLIYAASSLQSGVPSRFSGSGSGAAFTLTISSLQPEDFATYFCQQANSFPLTFAGGTKVDIKRGGGGSGGGGSQVQLQESGPGLVKPSQTLSLTCTVSGGSINNNNYYWTWIRQHPGKGLEWIGYIYYSGSTFYNPSLKSRVTISVDTSKTQFSLKLSSVTAADTAVYYCAREDTMTGLDVWGQGTTVTVSSASTKGPSVFPLAPCSRSTSESTAALGCLVKDYFPEPVTVSWNSGALTSGVHTFPAVLQSSGLYSLSSVVTVPSSNFGTQTYTCNVDHKPSNTKVDKTVGGGGSAAAVPRDLEVVAATPTSLLISWDAPHHGVAYYRITYGETGGNSPVQEFTVPGSKSTATISGLKPGVDYTINVYAVLAYPRGYPLSKPISINYRTDYKDDDDKGSSHHHHHH chain 2: DIQMTQSPSSLSASVGDRVTITCRASQSINNYLNWYQQKPGKAPTLLIYAASSLQSGVPSRFSGSRSGTDFTLTISSLQPEDFAAYFCQQTYSNPTFGQGTKVEVKGGGGSGGGGSQVQLVESGGGVVQPGRSLRLSCAASGFTFSSYGMHWVRQAPGKGLEWVAVISYPGNTKYYADSVKGRFTISRDNSKNTLYLQMNSLRAEDTAVYFCARDQKEWRLIFDYWGQGTLVTVSSRTVAAPSVFIFPPSDEQLKSGTASVVCLLNNFYPREAKVQWKVDNALQSGNSQESVTEQDSKDSTYSLSSTLTLSKADYEKHKVYACEVTHQGLSSPVTKSFNRGEC	18.8	91	11 geometric mean of fluorescence intensity	110 geometric mean of fluorescence intensity
H71365.2 (anti-MSLN/CD3ε heterodimeric bispecific antibody) (bispecific antibody) chain 1: QVQLVESGGGVVQPGRSLRLSCAASGFTFSSYGMHWVRQAPGKGLEWVAVISYPGNTKYYADSVKGRFTISRDNSKNTLYLQMNSLRAEDTAVYFCARDQKEWRLIFDYWGQGTLVTVSSGGGGSGGGGSQVQLQESGPGLVKPSQTLSLTCTVSGGSINNNNYYWTWIRQHPGKGLEWIGYIYYSGSTFYNPSLKSRVTISVDTSKTQFSLKLSSVTAADTAVYYCAREDTMTGLDVWGQGTTVTVSSASTKGPSVFPLAPCSRSTSESTAALGCLVKDYFPEPVTVSWNSGALTSGVHTFPAVLQSSGLYSLSSVVTVPSSNFGTQTYTCNVDHKPSNTKVDKTVGGGGSAAAVPRDLEVVAATPTSLLISWDAPHHGVAYYRITYGETGGNSPVQEFTVPGSKSTATISGLKPGVDYTINVYAVLAYPRGYPLSKPISINYRTDYKDDDDKGSSHHHHHH chain 2: DIQMTQSPSSVSASVGDRVTITCRASQGISSWLAWYQQKPGKAPKLLIYAASSLQSGVPSRFSGSGSGAAFTLTISSLQPEDFATYFCQQANSFPLTFAGGTKVDIKRGGGGSGGGGSDIQMTQSPSSLSASVGDRVTITCRASQSINNYLNWYQQKPGKAPTLLIYAASSLQSGVPSRFSGSRSGTDFTLTISSLQPEDFAAYFCQQTYSNPTFGQGTKVEVKRTVAAPSVFIFPPSDEQLKSGTASVVCLLNNFYPREAKVQWKVDNALQSGNSQESVTEQDSKDSTYSLSSTLTLSKADYEKHKVYACEVTHQGLSSPVTKSFNRGEC	8.1	86	66 geometric mean of fluorescence intensity	276 geometric mean of fluorescence intensity

From US20160115241A1 (Amgen, published 2016)
